Tests used:
[1] = target: IRB/IGF1R hybrid receptor (IRB-Luc/IGF1R-YFP) (UniProt P06213)
[2] = target: IRA homodimer (IRA-Luc/IRA-YFP) (UniProt P06213)
[3] = target: IRB homodimer (IRB-Luc/IRB-YFP) (UniProt P06213)
[4] = target: IRA/IGF1R hybrid receptor (IRA-Luc/IGF1R-YFP) (UniProt P06213)
[5] = target: IRB/IGF1R hybrid receptor (IRB-Luc/IGF1R-YFP) (UniProt P06213); remark: listed apart in the source
[6] = target: IRA homodimer (IRA-Luc/IRA-YFP) (UniProt P06213); remark: listed apart in the source
[7] = target: IRB homodimer (IRB-Luc/IRB-YFP) (UniProt P06213); remark: listed apart in the source
[8] = target: IRA/IGF1R hybrid receptor (IRA-Luc/IGF1R-YFP) (UniProt P06213); remark: listed apart in the source
[9] = target: insulin receptor (IR), endogenous in MCF-7 and MDA-MB231 cells (human (endogenous in MCF-7 and MDA-MB231)) (UniProt P06213)

Substance	EC50 of ligand-induced BRET (Luc/YFP on the two ß-subunits) of partially purified receptors, series with M1 and M2 [1] [nM]	EC50 of ligand-induced BRET (Luc/YFP on the two ß-subunits) of partially purified receptors, series with M1 and M2 [2] [nM]	EC50 of ligand-induced BRET (Luc/YFP on the two ß-subunits) of partially purified receptors, series with M1 and M2 [3] [nM]	EC50 of ligand-induced BRET (Luc/YFP on the two ß-subunits) of partially purified receptors, series with M1 and M2 [4] [nM]	EC50 of ligand-induced BRET (Luc/YFP on the two ß-subunits) of partially purified receptors [5] [nM]	EC50 of ligand-induced BRET (Luc/YFP on the two ß-subunits) of partially purified receptors [6] [nM]	EC50 of ligand-induced BRET (Luc/YFP on the two ß-subunits) of partially purified receptors [7] [nM]	EC50 of ligand-induced BRET (Luc/YFP on the two ß-subunits) of partially purified receptors [8] [nM]	EC50 of PIP3 production (BRET, Luc-Akt-PH and membrane YFP) in living MDA-MB231 cells [9] [nM]
Glargine metabolite M1 (A21Gly-insulin) (ligand)	147	16.7	9.64	225	–	–	–	–	–
detemir (B29Lys(e-tetradecanoyl),desB30)-insulin) (ligand)	–	–	–	–	175	5.13	5.24	335	2.3
glulisine (B3Lys,B29Glu-insulin) (ligand)	–	–	–	–	107	1.61	1.64	183	0.84

Now from value to substance:

EC50 of ligand-induced BRET (Luc/YFP on the two ß-subunits) of partially purified receptors, series with M1 and M2 [1] [nM]	EC50 of ligand-induced BRET (Luc/YFP on the two ß-subunits) of partially purified receptors, series with M1 and M2 [2] [nM]	EC50 of ligand-induced BRET (Luc/YFP on the two ß-subunits) of partially purified receptors, series with M1 and M2 [3] [nM]	EC50 of ligand-induced BRET (Luc/YFP on the two ß-subunits) of partially purified receptors, series with M1 and M2 [4] [nM]	EC50 of ligand-induced BRET (Luc/YFP on the two ß-subunits) of partially purified receptors [5] [nM]	EC50 of ligand-induced BRET (Luc/YFP on the two ß-subunits) of partially purified receptors [6] [nM]	EC50 of ligand-induced BRET (Luc/YFP on the two ß-subunits) of partially purified receptors [7] [nM]	EC50 of ligand-induced BRET (Luc/YFP on the two ß-subunits) of partially purified receptors [8] [nM]	EC50 of PIP3 production (BRET, Luc-Akt-PH and membrane YFP) in living MDA-MB231 cells [9] [nM]	Substance
169	13.8	6.31	315	–	–	–	–	–	Glargine metabolite M2 (A21Gly,B30desThr-insulin) (ligand)
3.05	50.6	130	4.23	2.87	34.4	50	3.01	–	IGF1 (from UniProt P05019 49-118) (ligand)

Source: paper PMC3406060
